This assay deals with Epidermal Growth Factor Receptor (EGFR), Drosophila, endogenous (Drosophila (endogenous in ovaries)) (UniProt P04412). In words: co-IP; ovarian lysates of wild-type females or females expressing D-CblL or RING-SH2^Drk in follicle cells, immunoprecipitated with mouse monoclonal anti-EGFR, 4°C; blotted with rabbit anti-EGFR and anti-Drk.
Chain of UniProt P04412 (P04412 31-1426): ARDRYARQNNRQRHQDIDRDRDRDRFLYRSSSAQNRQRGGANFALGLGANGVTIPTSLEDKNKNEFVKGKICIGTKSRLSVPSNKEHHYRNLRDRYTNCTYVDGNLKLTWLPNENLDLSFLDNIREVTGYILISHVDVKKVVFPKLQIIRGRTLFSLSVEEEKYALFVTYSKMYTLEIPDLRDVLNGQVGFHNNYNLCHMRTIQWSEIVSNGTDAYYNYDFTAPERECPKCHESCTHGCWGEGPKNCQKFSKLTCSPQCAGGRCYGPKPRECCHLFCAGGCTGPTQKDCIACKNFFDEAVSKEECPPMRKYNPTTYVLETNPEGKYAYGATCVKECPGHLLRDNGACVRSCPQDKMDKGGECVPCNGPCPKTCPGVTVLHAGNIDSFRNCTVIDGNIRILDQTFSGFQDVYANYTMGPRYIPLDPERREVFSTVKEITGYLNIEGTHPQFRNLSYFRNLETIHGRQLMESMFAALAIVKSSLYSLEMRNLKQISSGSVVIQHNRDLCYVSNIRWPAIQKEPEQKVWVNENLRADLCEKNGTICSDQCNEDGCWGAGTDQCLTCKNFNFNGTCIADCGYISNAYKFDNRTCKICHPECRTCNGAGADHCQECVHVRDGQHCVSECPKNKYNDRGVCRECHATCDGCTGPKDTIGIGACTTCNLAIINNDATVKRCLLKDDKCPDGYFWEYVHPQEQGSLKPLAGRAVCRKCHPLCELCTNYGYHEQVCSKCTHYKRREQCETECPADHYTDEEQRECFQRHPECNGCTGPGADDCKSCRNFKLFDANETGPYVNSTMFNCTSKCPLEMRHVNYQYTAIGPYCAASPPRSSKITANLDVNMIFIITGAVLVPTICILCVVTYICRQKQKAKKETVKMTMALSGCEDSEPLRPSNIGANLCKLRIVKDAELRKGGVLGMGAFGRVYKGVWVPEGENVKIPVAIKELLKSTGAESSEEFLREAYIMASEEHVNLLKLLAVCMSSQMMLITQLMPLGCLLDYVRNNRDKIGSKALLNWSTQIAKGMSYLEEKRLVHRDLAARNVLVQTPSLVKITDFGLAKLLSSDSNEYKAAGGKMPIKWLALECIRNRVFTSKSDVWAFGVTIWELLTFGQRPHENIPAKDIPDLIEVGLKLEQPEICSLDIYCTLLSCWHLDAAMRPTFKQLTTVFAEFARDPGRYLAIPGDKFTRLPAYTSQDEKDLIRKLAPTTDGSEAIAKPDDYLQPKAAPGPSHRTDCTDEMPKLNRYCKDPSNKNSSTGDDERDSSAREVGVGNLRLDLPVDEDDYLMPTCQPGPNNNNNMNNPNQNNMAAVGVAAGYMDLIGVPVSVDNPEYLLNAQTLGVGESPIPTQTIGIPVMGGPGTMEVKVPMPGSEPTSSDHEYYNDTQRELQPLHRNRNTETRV

For “RING-SH2^Drk, fusion of the RING finger domain of D-CblL and the SH2 domain of Drk (from UniProt Q08012 53-160)”, the percent reduction of Drk in the EGFR complex is 40%.

For the origin of these results see PMC3038869.
